Results from patent publication US6168954A, “Soybean glutathione-S-transferase enzymes” (E. I. du Pont de Nemours & Company, priority 1999, dated 2001).

What was measured:
Format in all cases: biochemical
Conditions in all cases: 0.4 mM electrophilic substrate, 4 mM glutathione, 0.1 M MOPS pH 7.0, corrected for uncatalyzed reaction
[1] = GST conjugation activity with 1,2-epoxy-3-(p-nitrophenoxy)propane (HPLC)
Text: (§1) The GST enzymes, expressed and purified as described in Example 5 were screened for their ability to metabolize a variety of substrates. Substrates tested included the three herbicide electrophilic substrates chlorimuron ethyl, alachlor, and Atrazine, and four model electrophilic substrates, 1-chloro-2, 4-dinitro-benzene (CDNB), ethacrynic acid, t-stilbene oxide, and 1,2-epoxy-3-(p-nitro-phenoxy) propane. The enzymes were purified as described in Example 5 and used in the following assay.
(§2) For each enzyme, the conjugation reaction with each electrophilic substrate was performed by incubating 0.3 to 30 μg enzyme in 0.1 M MOPS (pH 7.0) containing 0.4 mM of the electrophilic substrate. The reaction was inititated by the addition of glutathione to a final concentration of 4 mM. After 5 to 30 min, the reaction was terminated by the addition of 45 μL acetonitrile, microfuged for 10 min to remove precipitated protein, and then the supematent was removed and added to 65 μL of water. This sample was chromatographed on a Zorbax C8 reverse phase HPLC column (3 μm particle size, 6.2 mm×8 cm) using a combination of linear gradients (flow=1.5 mL/min) of 1% H3 PO4 in water (solvent A) and 1% H3 PO4 in acetonitile. The gradient started with 5% solvent B, progressing from 5% to 75% solvent B between 1 and 10 min, and from 75% to 95% solvent B between 10 and 12 min. Control reactions without enzyme were performed to correct for uncatalyzed reaction. Quantitation of metabolites were based on an assumption that the extinction coefficient of the conjugate was identical to that of the electrophilic substrate.
(§3) Activities are related to the activity of a known and previously isolated and purified GST enzyme, GH2/4 (also called GST 26) (Czarnecka et al., Plant Molecular Biology 3:45-58 (1984); Ulmasoz et al., Plant Physiol 108:919-927 (1995)).

[2] = GST conjugation activity with t-stilbene oxide (HPLC)
Text: as §1, §2, §3

[3] = GST conjugation activity with ethacrynic acid (HPLC)
Text: as §1, §2, §3

[4] = GST conjugation activity with chlorimuron ethyl (HPLC)
Text: as §1, §2, §3

[5] = GST conjugation activity with CDNB (HPLC)
Text: as §1, §2, §3

[6] = GST conjugation activity with alachlor (HPLC)
Text: as §1, §2, §3

[7] = GST conjugation activity with Atrazine (HPLC)
Text: as §1, §2, §3

B1: ssm.pk0067.g5: soybean type III GST encoded by cDNA insert in clone ssm.pk0067.g5 (protein)
chain: MASYHEEEVRLLGKWASPFSNRVDLALKLKGVPYKYSEEDLANKSADLLKYNPVHKKVPVLVHNGNPLPESLIIVEYIDETWKNNPLLPQDPYERALARFWSKTLDDKILPAIWNACWSDENGREKAVEEALEALKILQETLKDKKFFGGESIGLVDIAANFIGYWVAILQEIAGLELLTIEKFPKLYNWSQDFINHPVIKEGLPPRDELFAFFKASAKK
[1]
  Activity of soybean GST enzyme, 1,2-epoxy-3-(p-nitrophenoxy)propane: 19 nmol/min/mg
[2]
  Activity of soybean GST enzyme, T-Stilbene Oxide: 0.49 nmol/min/mg
[3]
  Activity of soybean GST enzyme, Ethacrynic Acid: 13 nmol/min/mg
[4]
  Activity of soybean GST enzyme, Chlorimuron Ethyl: 0.1 nmol/min/mg
[5]
  Activity of soybean GST enzyme, CDNB: 1394 nmol/min/mg
[6]
  Activity of soybean GST enzyme, Alachlor: 4 nmol/min/mg
[7]
  Activity of soybean GST enzyme, Atrazine: 0.03 nmol/min/mg

B2: ses8w.pk0028.c6: soybean type III GST encoded by cDNA insert in clone ses8w.pk0028.c6 (protein)
chain: MAANQEDVKLLGATGSPFVCRVQIALKLKGVQYKFLEENLRNKSELLLKSNPVHKKVPVFIHNEKPIAESLVIVEYIDETWKNNPILPSDPYQRALARFWSKFIDDKVVGAAWKYIYTVDEKEREKNVEESYEALQFLENELKDKKFFGGEEIGLVDIAAVFIAFWIPIIQEVLGLKLFTSEKFPKLYKWSQEFINHPVVKQVLPPRDQLFAFYKACHESLSASK
[1]
  Activity of soybean GST enzyme, 1,2-epoxy-3-(p-nitrophenoxy)propane: 12 nmol/min/mg
[2]
  Activity of soybean GST enzyme, T-Stilbene Oxide: 4.04 nmol/min/mg
[3]
  Activity of soybean GST enzyme, Ethacrynic Acid: 17 nmol/min/mg
[4]
  Activity of soybean GST enzyme, Chlorimuron Ethyl: 0.2 nmol/min/mg
[5]
  Activity of soybean GST enzyme, CDNB: 515 nmol/min/mg
[6]
  Activity of soybean GST enzyme, Alachlor: 10 nmol/min/mg
[7]
  Activity of soybean GST enzyme, Atrazine: 1.40 nmol/min/mg

B3: ssl.pk0002.f7: soybean type III GST encoded by cDNA insert in clone ss1.pk0002.f7 (protein)
chain: MADGVVLLDTWASMFGMRVRIALAEKGVEYEYKEENLRNKSPLLLQMNPIHKKIPVLIHNGKPICESAIIVQYIDEVWNDKAPILPSDPYERAQARFWVDYIDKKVYDTWRKMWLSKGEEHEAGKKEFISIFKQLEETLSDKAYYGSDTFGFLDIGLIPFYSWFYTFETYGNFKMEEECPKLVAWAKRCMQREAVSKSLS
[1]
  Activity of soybean GST enzyme, 1,2-epoxy-3-(p-nitrophenoxy)propane: 10 nmol/min/mg
[2]
  Activity of soybean GST enzyme, T-Stilbene Oxide: 0.16 nmol/min/mg
[3]
  Activity of soybean GST enzyme, Ethacrynic Acid: 68 nmol/min/mg
[4]
  Activity of soybean GST enzyme, Chlorimuron Ethyl: 0.9 nmol/min/mg
[5]
  Activity of soybean GST enzyme, CDNB: 2576 nmol/min/mg
[6]
  Activity of soybean GST enzyme, Alachlor: 30 nmol/min/mg
[7]
  Activity of soybean GST enzyme, Atrazine: 0.00 nmol/min/mg

B4: GST-A: soybean type III GST encoded by cDNA insert in clone GSTa (protein)
chain: MSDEVVLLDFWPSPFGMRVRIALAEKGIKYEYKEEDLRNKSPLLLQMNPVHKKIPVLIHNGKPICESLIAVQYIEEVWNDRNPLLPSDPYQRAQTRFWADYVDKKIYDLGRKIWTSKGEEKEAAKKEFIEALKLLEEQLGDKTYFGGDNLGFVDIALVPFYTWFKAYETFGTLNIEECPKFIAWAKRCLQKESVAKSLPDQQKVYEFIMDLRKKLGIE
[1]
  Activity of soybean GST enzyme, 1,2-epoxy-3-(p-nitrophenoxy)propane: 22 nmol/min/mg
[2]
  Activity of soybean GST enzyme, T-Stilbene Oxide: 0.06 nmol/min/mg
[3]
  Activity of soybean GST enzyme, Ethacrynic Acid: 109 nmol/min/mg
[4]
  Activity of soybean GST enzyme, Chlorimuron Ethyl: 0.5 nmol/min/mg
[5]
  Activity of soybean GST enzyme, CDNB: 1924 nmol/min/mg
[6]
  Activity of soybean GST enzyme, Alachlor: 71 nmol/min/mg
[7]
  Activity of soybean GST enzyme, Atrazine: 0.03 nmol/min/mg

B5: ssl.pk0005.e6: soybean type III GST encoded by cDNA insert in clone ss1.pk0005.e6 (protein)
chain: MTDEVVLLDFWPSPFGMRVRIALAEKGIEYEYKEEDLRNKSPLLLQMNPVHKKIPVLIHNGKPISESLIAVQYIEEVWNDRNPLLPSDPYQRAQARFWADYVDIKIHDLGKKIWTSKGEEKEAAKKEFIEALKLLEEQLGDKTYFGGDNIGFVDIALVPFYTWFKVYETFGSLNIENECPRFVAWAKRCLQKESVAKSLPDQHKVYEFVVEIRKKLVIE
[1]
  Activity of soybean GST enzyme, 1,2-epoxy-3-(p-nitrophenoxy)propane: 4 nmol/min/mg
[2]
  Activity of soybean GST enzyme, T-Stilbene Oxide: 0.06 nmol/min/mg
[3]
  Activity of soybean GST enzyme, Ethacrynic Acid: 11 nmol/min/mg
[4]
  Activity of soybean GST enzyme, Chlorimuron Ethyl: 1.4 nmol/min/mg
[5]
  Activity of soybean GST enzyme, CDNB: 2030 nmol/min/mg
[6]
  Activity of soybean GST enzyme, Alachlor: 166 nmol/min/mg
[7]
  Activity of soybean GST enzyme, Atrazine: 0.00 nmol/min/mg

B6: se6.pk0048.d7: soybean type III GST encoded by cDNA insert in clone se6.pk0048.d7 (protein)
chain: MADEVVLLDFWPSPFGMRVRIALAEKGIKYESKEEDLQNKSPLLLKMNPVHKKIPVLIHNGKPICESLVAVQYIEEVWNDRNPLLPSDPYQRAQARFWADFVDNKIFDLGRKIWTSKGEEKEAAKKEFIEALKLLEEQLGDKTYFGGDDLGFVDIALIPFDTWFKTFGSLNIESECPKFVAWAKRCLQKDSVAKSLPDQHKVYEFIMDIRKKFDIE
[1]
  Activity of soybean GST enzyme, 1,2-epoxy-3-(p-nitrophenoxy)propane: 9 nmol/min/mg
[2]
  Activity of soybean GST enzyme, T-Stilbene Oxide: 0.07 nmol/min/mg
[3]
  Activity of soybean GST enzyme, Ethacrynic Acid: 4 nmol/min/mg
[4]
  Activity of soybean GST enzyme, Chlorimuron Ethyl: 0.5 nmol/min/mg
[5]
  Activity of soybean GST enzyme, CDNB: 1379 nmol/min/mg
[6]
  Activity of soybean GST enzyme, Alachlor: 8 nmol/min/mg
[7]
  Activity of soybean GST enzyme, Atrazine: 0.76 nmol/min/mg

B7: se3.03b09: soybean type III GST encoded by cDNA insert in clone se3.03b09 (protein)
chain: MSKSEDLKLLGGWFSPFALRVQIALNLKGLEYEVVEETLNPKSDLLLKSNPVHKKIPVFFHGDKVICESAIIVEYIDEAWTNVPSILPQNAYDRANARFWFAYIDEKWFTSLRSVLVAEDDEAKKPHFEQAEEGLERLEEVFNKYSEGKAYFGGDSIGFIDIGFGSFLSWMRVIEEMSGRKLLDEKKHPGLTQWAETFAADPAVKGILPETDKLVEFAKILQLKWTAAAAAAAK
[1]
  Activity of soybean GST enzyme, 1,2-epoxy-3-(p-nitrophenoxy)propane: 20 nmol/min/mg
[2]
  Activity of soybean GST enzyme, T-Stilbene Oxide: 0.07 nmol/min/mg
[3]
  Activity of soybean GST enzyme, Ethacrynic Acid: 1 nmol/min/mg
[4]
  Activity of soybean GST enzyme, Chlorimuron Ethyl: 4.4 nmol/min/mg
[5]
  Activity of soybean GST enzyme, CDNB: 14364 nmol/min/mg
[6]
  Activity of soybean GST enzyme, Alachlor: 168 nmol/min/mg

B8: se6.pk0037.h4: soybean type III GST encoded by cDNA insert in clone se6.pk0037.h4, expressed in E. coli (protein)
chain: MAATQEDVTLLGVVGSPFVCRVQIALKLKGIECKFLEENLANKSDLLLKSNPVYKKVPVFIHNEKPIAESLVIVEYIDETWKNNPILPSDPYQRSFARFWSKFIDDKIVGASWKSVFTVDEKEREKNVEESLEALQFLENELQDKRFFGGDEFGFVDIAGVFIAFSIPIFQEVAGLQLFTSEKFPKLFKWSQELINHPVVKDVLPPREPLFAFFKSLYESLSASK
[1]
  Activity of soybean GST enzyme, 1,2-epoxy-3-(p-nitrophenoxy)propane: 1 nmol/min/mg
[2]
  Activity of soybean GST enzyme, T-Stilbene Oxide: 0.06 nmol/min/mg
[3]
  Activity of soybean GST enzyme, Ethacrynic Acid: 13 nmol/min/mg
[4]
  Activity of soybean GST enzyme, Chlorimuron Ethyl: 0.1 nmol/min/mg
[5]
  Activity of soybean GST enzyme, CDNB: 2364 nmol/min/mg
[6]
  Activity of soybean GST enzyme, Alachlor: 1 nmol/min/mg
[7]
  Activity of soybean GST enzyme, Atrazine: 0.19 nmol/min/mg

B9: ssl.pk0020.b10: soybean type III GST encoded by cDNA insert in clone ss1.pk0020.b10 (protein)
chain: MAEQDKVILHGMWASPYAKRVELALNFKGIPYEYVEEDLRNKSDLLLKYNPVHKKVPVLVHNGKAIAESMVILEYIDETWKDGPKLLPSDSYKRAQARFWCHFIQDQLMESTFLVVKTDGEAQQKAIDHVYEKLKVLEDGMKTYLGEGNAIISGVENNFGILDIVFCALYGAYKAHEEVIGLKFIVPEKFPVLFSWLMAIAEVEAVKIATPPHEKTVGILQLFRLSALKSSSATE
[1]
  Activity of soybean GST enzyme, 1,2-epoxy-3-(p-nitrophenoxy)propane: 47 nmol/min/mg
[2]
  Activity of soybean GST enzyme, T-Stilbene Oxide: 0.02 nmol/min/mg
[3]
  Activity of soybean GST enzyme, Ethacrynic Acid: 14 nmol/min/mg
[4]
  Activity of soybean GST enzyme, Chlorimuron Ethyl: 0.1 nmol/min/mg
[5]
  Activity of soybean GST enzyme, CDNB: 470 nmol/min/mg
[6]
  Activity of soybean GST enzyme, Alachlor: 7 nmol/min/mg
[7]
  Activity of soybean GST enzyme, Atrazine: 0.03 nmol/min/mg
